By Kd is commonly meant the constant that tells how readily two partners part at equilibrium.

Bounds are passed on as bounds.

The target of experiment [1] is HLA-A*03:01. In words: IEDB peptide-MHC binding, purified MHC/competitive/fluorescence; filed as Kd, often an IC50 or EC50 that approximates it; ≥ and ≤ were set here for values at or beyond the usual limits of such assays.
A further experiment deals with HLA-B*44:02. Briefly: IEDB peptide-MHC binding, purified MHC/competitive/radioactivity; filed as Kd, often an IC50 or EC50 that approximates it; ≥ and ≤ were set here for values at or beyond the usual limits of such assays.
The target in a further experiment is HLA-B*44:03. The description is as above.
For experiment [2], the target named is HLA-B*18:01. The experiment is described as above.
The next experiment deals with HLA-B*40:02. The description is as above.
Another experiment concerns the target HLA-B*40:01. The experiment is described as above.
The target of a further experiment is HLA-B*45:01. Described as above.
Experiment [3] concerns the target HLA-A*03:01. Briefly: IEDB peptide-MHC binding, purified MHC/direct/fluorescence; filed as Kd, often an IC50 or EC50 that approximates it; ≥ and ≤ were set here for values at or beyond the usual limits of such assays. To be noted: source organism: Reston ebolavirus - Reston.
A further experiment concerns the target HLA-B*27:03. Briefly: IEDB peptide-MHC binding, purified MHC/competitive/fluorescence; filed as Kd, often an IC50 or EC50 that approximates it; ≥ and ≤ were set here for values at or beyond the usual limits of such assays. To be noted: source organism: Reston ebolavirus.
A further experiment concerns the target HLA-B*46:01. Described as above. To be noted: source organism: Reston ebolavirus.
For experiment [4], the target named is HLA-B*51:01. The description is as above. To be noted: source organism: Reston ebolavirus.
Experiment [5] concerns the target HLA-A*02:01. The description is as above. As to conditions: source organism: Reston ebolavirus.
The target in experiment [6] is HLA-B*18:01. Described as above. To be noted: source organism: Reston ebolavirus.
A further experiment concerns the target HLA-B*15:01. The experiment is described as above.
The next experiment concerns the target HLA-B*39:01. Described as above. As to conditions: source organism: Reston ebolavirus.
For another experiment, the target named is HLA-B*57:01. The description is as above. As to conditions: source organism: Reston ebolavirus.
Another experiment deals with HLA-A*26:01. The experiment is described as above. As to conditions: source organism: Reston ebolavirus.
A further experiment concerns the target HLA-A*69:01. The description is as above. To be noted: source organism: Reston ebolavirus.
Experiment [7] concerns the target HLA-A*03:01. In words: IEDB peptide-MHC binding, purified MHC/competitive/radioactivity; filed as Kd, often an IC50 or EC50 that approximates it; ≥ and ≤ were set here for values at or beyond the usual limits of such assays. To be noted: source organism: Hepacivirus hominis.
In another experiment the target is HLA-A*02:06. The experiment is described as above. To be noted: source organism: Hepacivirus hominis.
Another experiment deals with HLA-A*68:02. The description is as above. To be noted: source organism: Hepacivirus hominis.
The next experiment deals with HLA-A*31:01. The description is as above. To be noted: source organism: Hepacivirus hominis.
Experiment [8] concerns the target HLA-B*51:01. The description is as above. To be noted: source organism: Hepacivirus hominis.
Experiment [9] deals with HLA-A*02:01. The description is as above. As to conditions: source organism: Hepacivirus hominis.
The target in the next experiment is HLA-A*33:01. The description is as above. As to conditions: source organism: Hepacivirus hominis.
For a further experiment, the target named is HLA-B*54:01. The description is as above. To be noted: source organism: Hepacivirus hominis.
For a further experiment, the target named is HLA-A*02:03. The description is as above. To be noted: source organism: Hepacivirus hominis.
For the next experiment, the target named is HLA-B*08:01. The experiment is described as above. As to conditions: source organism: Hepacivirus hominis.
The target of a further experiment is HLA-B*53:01. The description is as above. As to conditions: source organism: Hepacivirus hominis.
The target of another experiment is HLA-A*68:01. Described as above. As to conditions: source organism: Hepacivirus hominis.
The target in a further experiment is HLA-B*07:02. The description is as above. To be noted: source organism: Hepacivirus hominis.
In the next experiment the target is HLA-A*11:01. The experiment is described as above. To be noted: source organism: Hepacivirus hominis.
The target of another experiment is HLA-A*01:01. Described as above. To be noted: source organism: Hepacivirus hominis.
For another experiment, the target named is HLA-B*35:01. Described as above. To be noted: source organism: Hepacivirus hominis.
The next experiment concerns the target HLA-A*02:02. The description is as above. As to conditions: source organism: Hepacivirus hominis.
Setting [10] is: source organism: Giardia lamblia ATCC 50803.
Setting [11] is: source organism: Mammarenavirus guanaritoense.
[12] abbreviates: source organism: Mammarenavirus machupoense.
[13] abbreviates: source organism: SARS coronavirus Tor2.
The mark [14] stands for this setting: source organism: Mammarenavirus lassaense.
Setting [15] is: source organism: Mammarenavirus whitewaterense.
Where [16] appears, read: source organism: Mammarenavirus choriomeningitidis.
Where [17] appears, read: source organism: Shigella flexneri 5 str. 8401.
[18] abbreviates: source organism: Hepacivirus hominis.

In the experiment with HLA-A*03:01 [1] (setting [10]), LMLASSAGH returned a Kd of 0.559 µM.
RDLVISDSS: the equilibrium dissociation constant (Kd) with HLA-B*44:02 (setting [11]) was no less than 77.9 µM; with HLA-B*44:03 (setting [11]), no less than 35.8 µM; with HLA-B*18:01 [2] (setting [11]), no less than 77.5 µM; with HLA-B*40:02 (setting [11]) it was 2.49 µM; with HLA-B*40:01 (setting [11]) it was no less than 53.4 µM; with HLA-B*45:01 (setting [11]), no less than 77.7 µM.
Regarding SEILKTLGF, the Kd amounted to 0.00421 µM in the experiment with HLA-B*44:02 (setting [12]); 0.0141 µM in the experiment with HLA-B*44:03 (setting [12]); 0.655 µM with HLA-B*18:01 [2] (setting [12]); 0.165 µM with HLA-B*40:02 (setting [12]); 1 µM in the experiment with HLA-B*40:01 (setting [12]); 1.61 µM in the experiment with HLA-B*45:01 (setting [12]).
In the case of FELTSMKYF, the Kd with HLA-B*44:02 (setting [13]) was 0.0927 µM; with HLA-B*44:03 (setting [13]) it was 0.161 µM; with HLA-B*18:01 [2] (setting [13]), 3.72 µM; with HLA-B*40:02 (setting [13]), 2.32 µM; in the experiment with HLA-B*40:01 (setting [13]) it was 10.7 µM; with HLA-B*45:01 (setting [13]), no less than 33.9 µM.
Take IEEIMNIVLI: the Kd worked out at 0.151 µM with HLA-B*44:02 (setting [14]); 0.445 µM in the experiment with HLA-B*44:03 (setting [14]); 3.15 µM with HLA-B*18:01 [2] (setting [14]); 0.0984 µM with HLA-B*40:02 (setting [14]); 1.81 µM with HLA-B*40:01 (setting [14]); 1.3 µM with HLA-B*45:01 (setting [14]).
As for ALYEENALK, the Kd in the experiment with HLA-A*03:01 [3] was 1.84 µM; with HLA-B*27:03, no less than 20 µM; with HLA-B*46:01, no less than 20 µM; in the experiment with HLA-B*51:01 [4], no less than 20 µM; with HLA-A*02:01 [5], no less than 20 µM; with HLA-B*18:01 [6] it was no less than 20 µM. For the same sequence, the Kd with HLA-B*15:01 (source organism: Reston ebolavirus), with HLA-B*39:01, with HLA-B*57:01, with HLA-A*26:01 and with HLA-A*69:01 was no less than 20 µM throughout.
On to PEFDWILGW, for which the Kd with HLA-B*44:02 (setting [11]) was 0.212 µM; with HLA-B*44:03 (setting [11]), 0.0274 µM; in the experiment with HLA-B*18:01 [2] (setting [11]) it was 5.12 µM; with HLA-B*40:02 (setting [11]) it was no less than 22 µM; with HLA-B*40:01 (setting [11]), no less than 76.1 µM; with HLA-B*45:01 (setting [11]), no less than 77.7 µM.
Take LDIQKCGEL: the Kd is no less than 77.9 µM in the experiment with HLA-B*44:02 (setting [15]); no less than 78.1 µM with HLA-B*44:03 (setting [15]); no less than 53.2 µM with HLA-B*18:01 [2] (setting [15]); 9.66 µM with HLA-B*40:02 (setting [15]); no less than 46.7 µM with HLA-B*40:01 (setting [15]); no less than 56.9 µM in the experiment with HLA-B*45:01 (setting [15]).
Take NDSILSHNF: the Kd is 0.182 µM with HLA-B*44:02 (setting [16]); 11.4 µM in the experiment with HLA-B*44:03 (setting [16]); 0.423 µM with HLA-B*18:01 [2] (setting [16]); 5.93 µM with HLA-B*40:02 (setting [16]); no less than 76.1 µM in the experiment with HLA-B*40:01 (setting [16]); no less than 77.7 µM in the experiment with HLA-B*45:01 (setting [16]).
In the case of VEYPIIGDEL, the Kd turned out to be 4.81 µM with HLA-B*44:02 (setting [13]); 0.282 µM in the experiment with HLA-B*44:03 (setting [13]); 15.2 µM in the experiment with HLA-B*18:01 [2] (setting [13]); 0.5 µM with HLA-B*40:02 (setting [13]); 0.00504 µM with HLA-B*40:01 (setting [13]); 2.23 µM with HLA-B*45:01 (setting [13]).
In the case of ADSLDFTQV, the Kd was 12.6 µM with HLA-B*44:02 (setting [11]); no less than 33.3 µM in the experiment with HLA-B*44:03 (setting [11]); no less than 66.5 µM in the experiment with HLA-B*18:01 [2] (setting [11]); 5.85 µM with HLA-B*40:02 (setting [11]); no less than 64.9 µM with HLA-B*40:01 (setting [11]); 6.12 µM with HLA-B*45:01 (setting [11]).
For WEIQQVVDA, the Kd with HLA-B*44:02 (setting [13]) was no less than 30.3 µM; with HLA-B*44:03 (setting [13]), 9.04 µM; with HLA-B*18:01 [2] (setting [13]), 4.92 µM; with HLA-B*40:02 (setting [13]) it was 0.0543 µM; with HLA-B*40:01 (setting [13]), 1.03 µM; with HLA-B*45:01 (setting [13]), 0.135 µM.
Regarding ALTSAMLDR, the dissociation constant Kd with HLA-A*03:01 [1] (source organism: Yersinia pestis Antiqua) was 0.0381 µM.
Consider NELQTLPSL, for which the Kd with HLA-A*03:01 [1] (setting [17]) and with HLA-B*15:01 (setting [17]) was no less than 20 µM each time.
For the sequence LMLASSAGK, the Kd with HLA-A*03:01 [1] (setting [10]) was 0.0078 µM.
Consider RDWAHNSL, for which the Kd with HLA-B*44:02 (setting [18]) was no less than 75.4 µM; with HLA-A*03:01 [7], no less than 87.3 µM; with HLA-A*02:06, no less than 55.7 µM; with HLA-A*68:02 it was no less than 69.8 µM; in the experiment with HLA-A*31:01, no less than 67.1 µM; with HLA-B*51:01 [8], no less than 87.3 µM. Besides, the Kd with HLA-A*02:01 [9] was no less than 69.4 µM; with HLA-A*33:01, no less than 78.4 µM; with HLA-B*54:01, no less than 87.7 µM; with HLA-B*44:03 (setting [18]) it was no less than 87.2 µM; in the experiment with HLA-A*02:03 it was no less than 70.4 µM; in the experiment with HLA-B*18:01 [2] (setting [18]), no less than 88.6 µM. For the same sequence, the Kd was no less than 83.4 µM with HLA-B*08:01; no less than 87.7 µM in the experiment with HLA-B*53:01; no less than 87.9 µM with HLA-A*68:01; 5.68 µM with HLA-B*07:02; no less than 87 µM with HLA-A*11:01; 1.8 µM with HLA-A*01:01. Also, the dissociation constant (Kd) is no less than 89.5 µM with HLA-B*40:02 (setting [18]), no less than 88.9 µM in the experiment with HLA-B*40:01 (setting [18]), no less than 87.8 µM with HLA-B*35:01 and no less than 70 µM with HLA-A*02:02.
